This is an account of results in patent US20230405133A1, “PURIFIED MULTIVALENT PROTEIN-HYALURONIC ACID POLYMER CONJUGATES” (Valitor, Inc., priority 2022, published 2023).

Assay [1] has as its target T1, Human VEGF 165 (human, UniProt P15692-4 27-191).
T1 construct: Loaded on the BLI probe as the ligand; also called BLI ligand Human VEGF 165 (Avi tag, R&D Systems AVI-293-050); not shown: Avi tag
The assay can be described thus: BLI, VEGF 165 on probe, conjugate as analyte, t = 0. A general note: Biolayer interferometry detects binding as a change in optical thickness at a sensor tip.

In assay [2] the target is T1, Human VEGF 165. Put plainly: BLI, VEGF binding affinity (KD, nM).
Assay [3] has as its target T1, Human VEGF 165. The assay can be described thus: BLI, VEGF 165 on probe, conjugate as analyte.
The target of assay [4] is T1, Human VEGF 165. Put plainly: BLI, VEGF 165 on probe, conjugate as analyte, t = 0; value is the limit of detection; t = 0, fresh conjugate, not aged.
Assay [5] has as its target T1, Human VEGF 165. Put plainly: BLI; KD after 4 days at 37 °C against KD at t = 0.
For assay [6], the target named is T1, Human VEGF 165. Put plainly: BLI; KD after 14 days at 37 °C against KD at t = 0.
Assay [7] has as its target T1, Human VEGF 165. Put plainly: BLI, VEGF 165 on probe; sample aged 4 days at 37 °C.
Assay [8] addresses T1, Human VEGF 165. The assay can be described thus: BLI, VEGF 165 on probe; sample aged 14 days at 37 °C.
Assay [9] deals with T1, Human VEGF 165. Put plainly: BLI, VEGF 165 on probe, t = 0 (repeats Table 15); limit of detection.
Assay [10] deals with T1, Human VEGF 165. The assay can be described thus: BLI, VEGF 165 on probe, conjugate as analyte, t = 0; value is the limit of detection.

T1 sequence (P15692 other isoform, or with tags, fused parts or gaps limits assumed): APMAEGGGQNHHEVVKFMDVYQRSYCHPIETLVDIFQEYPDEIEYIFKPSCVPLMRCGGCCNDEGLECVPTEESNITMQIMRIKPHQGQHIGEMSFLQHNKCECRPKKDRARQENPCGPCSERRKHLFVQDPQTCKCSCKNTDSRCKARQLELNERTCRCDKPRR

B1: Conjugate 9 (anti-VEGF E1-1 SEQ ID NO: 81 with aH linker SEQ ID NO: 21 on hyaluronic acid, intermediate 5-9) (VHH)
VHH: EVQLQASGGGFVQPGGSLRLSCAASGGGSDAGTMGWFRQAPGKEREFVSAISWAGTAWRYYADSVKGRFTISRDNSKNTVYLQMNSLRAEDTATYYCALGSYEMDHHYWGQGTQVTVSS
modifications: C-terminal Cys of the peptide linker bound by its thiol to the maleimide of the organic linker MP2H on hyaluronic acid (830 kDa)
notes: Multivalent peptide-hyaluronic acid conjugate (MVP); peptide valency 51; Method 5 intermediate
Regarding B1, in the assay with Human VEGF 165 [1], the Kd was 678 pM.

B2: Conjugate 10 (anti-VEGF E1-1 SEQ ID NO: 81 with aH linker SEQ ID NO: 21 on hyaluronic acid, intermediate 2-4) (VHH)
VHH: B1 VHH
modifications: C-terminal Cys of the peptide linker bound by its thiol to the maleimide of the organic linker MP2H on hyaluronic acid (830 kDa)
notes: Multivalent peptide-hyaluronic acid conjugate (MVP); peptide valency 136; Method 2 intermediate; also called anti-VEGF E1-1 MVP (Method 2)
As to B2, in the assay with Human VEGF 165 [1], binding was characterised by a dissociation constant (Kd) of 123 pM.

B3: 2H10_5MUT_aH_CYS (unconjugated) (VHH)
VHH: QVQLVESGGGLVQPGGSLRLSCLASGRRFSIEAMGWYRQAPGKQRELVAIIDSGGSTDYVDSAKGRFTISRDNSKNTVYLQMNSLRAEDTAVYYCNVIGSSWYGRGLDYWGQGTLVTVSS
notes: Free peptide, not conjugated to hyaluronic acid
Turning to B3, the binding result with Human VEGF 165 [2] is recorded as “binds”.

B4: 2H10_5MUT_aH_CYS MVP [140.3] (VHH)
VHH: B3 VHH
modifications: C-terminal Cys is the conjugation site
notes: Multivalent protein-hyaluronic acid conjugate
For B4, in the assay with Human VEGF 165 [2], the binding result was “binds”.

B5: HuNb42_A88P_aH_CYS (unconjugated) (VHH)
VHH: QVQLVESGGGLVQPGGSLRLSCAASGFAYSTYSMGWFRQAPGKEREAVATINSGTFRLWYTDSVKGRFTISRDNSKNTLYLQMNSLRPEDTAVYYCAARAWSPYSSTVDAGDFRYWGQGTLVTVSS
notes: as for B3
Turning to B5, in the assay with Human VEGF 165 [2], the binding result is on record as “binds”.

B6: Conjugate 28 (N42 anti-VEGF VHH, HuNb42 A88P aH_CYS, SEQ ID NO: 145, on hyaluronic acid, Method B intermediate) (VHH)
VHH: B5 VHH
modifications: C-terminal Cys bound by its thiol to the maleimide of the organic linker MP2H on hyaluronic acid (830 kDa)
notes: Multivalent peptide-hyaluronic acid conjugate; valency 129
In the assay with Human VEGF 165 [3], B6 displayed a Kd of 1.07 pM.

B7: Conjugate 15 (anti-VEGF VHH SEQ ID NO: 91 with aH linker SEQ ID NO: 21 on hyaluronic acid, intermediate 5-10) (VHH)
VHH: DVQLVESGGGLVQPGGSLRLSCAASGRTFSSYSMGWFRQAPGKEREFVVAISKGGYKYDAVSLEGRFTISRDNAKNTVYLQINSLRPEDTAVYYCASSRAYGSSRLRLADTYEYWGQGTLVTVSS
modifications: C-terminal Cys of the peptide linker bound by its thiol to the maleimide of the organic linker EMCH on hyaluronic acid (830 kDa)
notes: Multivalent peptide-hyaluronic acid conjugate (MVP); peptide valency 59; Method 5 intermediate 5-10, made with EMCH instead of MP2H; also called BI VHH anti-VEGF MVP
As for B7, in the assay with Human VEGF 165 [4], the Kd was less than 1 pM.

B8: Conjugate 22 (anti-VEGF VHH SEQ ID NO: 91 with aH linker SEQ ID NO: 21 on hyaluronic acid, intermediate 1-10) (VHH)
VHH: B7 VHH
modifications: C-terminal Cys of the peptide linker bound by its thiol to the maleimide of the organic linker MP2H on hyaluronic acid (830 kDa)
notes: Multivalent peptide-hyaluronic acid conjugate (MVP); peptide valency 18; Method 1 intermediate; also called BI VHH anti-VEGF MVP
Turning to B8, the entries for the “Change in KD to t = 0” value in the assay with Human VEGF 165 [5] and with Human VEGF 165 [6] were 5870 fold and 142 fold, respectively. Further, the Kd is 5870 pM with Human VEGF 165 [7], 142 pM in the assay with Human VEGF 165 [8], less than 1 pM with Human VEGF 165 [9] and less than 1 pM in the assay with Human VEGF 165 [10].

B9: Conjugate 23 (anti-VEGF VHH SEQ ID NO: 91 with aH linker SEQ ID NO: 21 on hyaluronic acid, intermediate 1-11) (VHH)
VHH: B7 VHH
modifications: C-terminal Cys of the peptide linker bound by its thiol to the maleimide of the organic linker MP2H on hyaluronic acid (830 kDa)
notes: Multivalent peptide-hyaluronic acid conjugate (MVP); peptide valency 33; Method 1 intermediate; also called BI VHH anti-VEGF MVP
As to B9, the entries for the “Change in KD to t = 0” value in the assay with Human VEGF 165 [5] and with Human VEGF 165 [6] were 6960 fold and 1950 fold, respectively. For the same molecule, the Kd with Human VEGF 165 [7] is 6960 pM; in the assay with Human VEGF 165 [8], 1950 pM; in the assay with Human VEGF 165 [9] it was less than 1 pM; in the assay with Human VEGF 165 [10], less than 1 pM.

In general, Kd refers to the free concentration of one partner at which half of the binding sites on the other are occupied at equilibrium, for simple one-to-one binding.
